This is an account of results in patent EP2045266A1, “Methods for treating and diagnosing a cancer secreting cath-D or Alzheimer's disease” (priority 2007, dated 2009).

This test addresses M6P receptors. Nature of the test: cell-based or functional assay.

Chain of pro-cath-D (52 kDa precursor of human cathepsin D), P07339 21-412 (enzyme) (P07339 21-412 limits assumed): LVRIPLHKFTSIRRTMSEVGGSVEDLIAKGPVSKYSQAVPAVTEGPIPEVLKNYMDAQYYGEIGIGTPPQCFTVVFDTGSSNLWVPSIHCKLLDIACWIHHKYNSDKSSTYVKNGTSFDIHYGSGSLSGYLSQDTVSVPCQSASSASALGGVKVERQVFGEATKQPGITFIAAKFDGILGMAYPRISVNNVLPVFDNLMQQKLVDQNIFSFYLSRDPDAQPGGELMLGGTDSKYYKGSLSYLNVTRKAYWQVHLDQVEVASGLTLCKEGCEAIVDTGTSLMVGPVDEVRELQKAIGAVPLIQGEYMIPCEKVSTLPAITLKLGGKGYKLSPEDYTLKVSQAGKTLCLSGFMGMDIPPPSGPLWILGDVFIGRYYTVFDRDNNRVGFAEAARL

“pro-cath-D (52 kDa precursor of human cathepsin D), P07339 21-412 (enzyme)” returned a decrease in internalization of labelled pro-cath-D by HMF fibroblasts over 3 h with excess soluble M6P (10 mM) of 82%.
